# Measurements taken from article PMC9482650, “Quantitative fragmentomics allow affinity mapping of interactomes” (Nature Communications, 2022).
# Target: T1, DLG3_1, Q92796
# T1 sequence (Q92796 125-227, limits assumed, looked up): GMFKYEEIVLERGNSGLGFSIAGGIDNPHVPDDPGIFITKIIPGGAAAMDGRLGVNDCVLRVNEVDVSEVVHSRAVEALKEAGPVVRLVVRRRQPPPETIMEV
# Test: holdup assay
# Set-up: key: below the threshold = too weak to quantify, mostly under pKd 3.1 to 4
# Conditions: plain residues with an end cap or a label only (N-terminal biotin on a linker: ado-ado)
row,Binder,pKd
1,"TKGPRGPTRV [SAPCD1, Q5SSQ6]",3.96

# Target: DLG1_1, Q12959
# Test: holdup assay
# Set-up: key: below the threshold = too weak to quantify, mostly under pKd 3.1 to 4
# Conditions: plain residues with an end cap or a label only (N-terminal biotin on a linker: ado-ado)
row,Binder,pKd
1,"TKGPRGPTRV [SAPCD1, Q5SSQ6]",4.38

# Target: T2, DLG3_2, Q92796
# T2 sequence (Q92796 221-321, limits assumed, looked up): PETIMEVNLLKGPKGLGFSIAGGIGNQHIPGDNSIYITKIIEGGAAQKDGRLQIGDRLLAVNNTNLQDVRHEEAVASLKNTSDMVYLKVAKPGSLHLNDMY
# Test: holdup assay
# Set-up: key: below the threshold = too weak to quantify, mostly under pKd 3.1 to 4
# Conditions: plain residues with an end cap or a label only (N-terminal biotin on a linker: ado-ado)
row,Binder,pKd
1,"TKGPRGPTRV [SAPCD1, Q5SSQ6]",4.13

# Target: MAGI2_2, Q86UL8
# Test: holdup assay
# Set-up: key: below the threshold = too weak to quantify, mostly under pKd 3.1 to 4
# Conditions: plain residues with an end cap or a label only (N-terminal biotin on a linker: ado-ado)
# Sequence of MAGI2_2, Q86UL8 (Q86UL8 410-522): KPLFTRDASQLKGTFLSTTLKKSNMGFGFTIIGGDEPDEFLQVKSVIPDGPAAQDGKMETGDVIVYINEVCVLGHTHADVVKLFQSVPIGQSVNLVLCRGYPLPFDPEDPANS
row,Binder,pKd
1,"TKGPRGPTRV [SAPCD1, Q5SSQ6]",5.42

# Target: SCRIB_3, Q14160
# Test: holdup assay
# Set-up: key: below the threshold = too weak to quantify, mostly under pKd 3.1 to 4
# Conditions: plain residues with an end cap or a label only (N-terminal biotin on a linker: ado-ado)
# Sequence of SCRIB_3, Q14160 (Q14160 999-1103): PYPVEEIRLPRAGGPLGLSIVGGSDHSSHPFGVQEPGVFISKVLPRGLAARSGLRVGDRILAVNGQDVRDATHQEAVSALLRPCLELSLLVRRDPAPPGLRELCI
row,Binder,pKd
1,"TKGPRGPTRV [SAPCD1, Q5SSQ6]",3.78

# Target: LDB3, O75112
# Test: holdup assay
# Set-up: key: below the threshold = too weak to quantify, mostly under pKd 3.1 to 4
# Conditions: plain residues with an end cap or a label only (N-terminal biotin on a linker: ado-ado)
# Sequence of LDB3, O75112 (O75112 1-94): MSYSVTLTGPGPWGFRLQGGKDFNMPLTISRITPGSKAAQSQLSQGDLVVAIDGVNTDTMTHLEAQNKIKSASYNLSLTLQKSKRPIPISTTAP
row,Binder,pKd
1,"TKGPRGPTRV [SAPCD1, Q5SSQ6]",below the threshold

# Target: T3, LIN7A, O14910
# T3 sequence (O14910 103-200, limits assumed, looked up): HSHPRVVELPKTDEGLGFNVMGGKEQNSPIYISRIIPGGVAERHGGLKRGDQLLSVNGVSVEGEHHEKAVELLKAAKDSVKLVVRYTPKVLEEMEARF
# Test: holdup assay
# Set-up: key: below the threshold = too weak to quantify, mostly under pKd 3.1 to 4
# Conditions: plain residues with an end cap or a label only (N-terminal biotin on a linker: ado-ado)
row,Binder,pKd
1,"TKGPRGPTRV [SAPCD1, Q5SSQ6]",below the threshold

# Target: IL16_1, Q14005
# Test: holdup assay
# Set-up: key: below the threshold = too weak to quantify, mostly under pKd 3.1 to 4
# Conditions: plain residues with an end cap or a label only (N-terminal biotin on a linker: ado-ado)
# Sequence of IL16_1, Q14005 (Q14005 210-306): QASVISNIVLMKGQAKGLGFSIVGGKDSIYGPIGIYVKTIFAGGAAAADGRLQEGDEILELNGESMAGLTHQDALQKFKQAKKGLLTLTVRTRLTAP
row,Binder,pKd
1,"TKGPRGPTRV [SAPCD1, Q5SSQ6]",below the threshold

# Target: TJP1_2, Q07157
# Test: holdup assay
# Set-up: key: below the threshold = too weak to quantify, mostly under pKd 3.1 to 4
# Conditions: plain residues with an end cap or a label only (N-terminal biotin on a linker: ado-ado)
# Sequence of TJP1_2, Q07157 (Q07157 181-274): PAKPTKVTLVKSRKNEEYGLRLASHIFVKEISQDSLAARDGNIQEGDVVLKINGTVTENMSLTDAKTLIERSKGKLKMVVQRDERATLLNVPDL
row,Binder,pKd
1,"TKGPRGPTRV [SAPCD1, Q5SSQ6]",below the threshold

# Target: GORASP2, Q9H8Y8
# Test: holdup assay
# Set-up: key: below the threshold = too weak to quantify, mostly under pKd 3.1 to 4
# Conditions: plain residues with an end cap or a label only (N-terminal biotin on a linker: ado-ado)
row,Binder,pKd
1,"TKGPRGPTRV [SAPCD1, Q5SSQ6]",3.96

# Target: DLG1_3, Q12959
# Test: holdup assay
# Set-up: key: below the threshold = too weak to quantify, mostly under pKd 3.1 to 4
# Conditions: plain residues with an end cap or a label only (N-terminal biotin on a linker: ado-ado)
row,Binder,pKd
1,"TKGPRGPTRV [SAPCD1, Q5SSQ6]",4.31

# Target: T4, ARHGEF11, O15085
# T4 sequence (O15085 42-136, limits assumed, looked up): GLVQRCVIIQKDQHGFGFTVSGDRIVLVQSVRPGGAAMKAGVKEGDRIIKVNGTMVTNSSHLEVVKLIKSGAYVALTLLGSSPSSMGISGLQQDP
# Test: holdup assay
# Set-up: key: below the threshold = too weak to quantify, mostly under pKd 3.1 to 4
# Conditions: plain residues with an end cap or a label only (N-terminal biotin on a linker: ado-ado)
row,Binder,pKd
1,"TKGPRGPTRV [SAPCD1, Q5SSQ6]",4.03

# Target: T5, RADIL, Q96JH8
# T5 sequence (Q96JH8 971-1071, limits assumed, looked up): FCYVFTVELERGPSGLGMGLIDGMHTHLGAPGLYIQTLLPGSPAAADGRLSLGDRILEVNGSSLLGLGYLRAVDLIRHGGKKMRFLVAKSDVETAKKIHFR
# Test: holdup assay
# Set-up: key: below the threshold = too weak to quantify, mostly under pKd 3.1 to 4
# Conditions: plain residues with an end cap or a label only (N-terminal biotin on a linker: ado-ado)
row,Binder,pKd
1,"TKGPRGPTRV [SAPCD1, Q5SSQ6]",3.54

# Target: TJP2_1, Q9UDY2
# Test: holdup assay
# Set-up: key: below the threshold = too weak to quantify, mostly under pKd 3.1 to 4
# Conditions: plain residues with an end cap or a label only (N-terminal biotin on a linker: ado-ado)
# Sequence of TJP2_1, Q9UDY2 (Q9UDY2 24-128): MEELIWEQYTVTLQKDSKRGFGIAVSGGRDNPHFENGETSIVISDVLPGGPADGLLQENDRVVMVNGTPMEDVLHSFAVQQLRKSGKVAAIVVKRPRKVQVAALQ
row,Binder,pKd
1,"TKGPRGPTRV [SAPCD1, Q5SSQ6]",3.9

# Target: T6, SIPA1L2, Q9P2F8
# T6 sequence (Q9P2F8 945-1036, limits assumed, looked up): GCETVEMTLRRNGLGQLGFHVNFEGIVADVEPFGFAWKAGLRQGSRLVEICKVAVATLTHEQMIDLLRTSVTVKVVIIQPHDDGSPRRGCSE
# Test: holdup assay
# Set-up: key: below the threshold = too weak to quantify, mostly under pKd 3.1 to 4
# Conditions: plain residues with an end cap or a label only (N-terminal biotin on a linker: ado-ado)
row,Binder,pKd
1,"TKGPRGPTRV [SAPCD1, Q5SSQ6]",below the threshold

# Target: MAGI1_2, Q96QZ7
# Test: holdup assay
# Set-up: key: below the threshold = too weak to quantify, mostly under pKd 3.1 to 4
# Conditions: plain residues with an end cap or a label only (N-terminal biotin on a linker: ado-ado)
# Sequence of MAGI1_2, Q96QZ7 (Q96QZ7 456-580): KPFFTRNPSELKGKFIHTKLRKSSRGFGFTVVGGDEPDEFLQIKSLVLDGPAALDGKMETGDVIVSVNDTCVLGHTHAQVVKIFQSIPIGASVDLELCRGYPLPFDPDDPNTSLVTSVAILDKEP
row,Binder,pKd
1,"TKGPRGPTRV [SAPCD1, Q5SSQ6]",4.19

# Target: SCRIB_2, Q14160
# Test: holdup assay
# Set-up: key: below the threshold = too weak to quantify, mostly under pKd 3.1 to 4
# Conditions: plain residues with an end cap or a label only (N-terminal biotin on a linker: ado-ado)
# Sequence of SCRIB_2, Q14160 (Q14160 857-960): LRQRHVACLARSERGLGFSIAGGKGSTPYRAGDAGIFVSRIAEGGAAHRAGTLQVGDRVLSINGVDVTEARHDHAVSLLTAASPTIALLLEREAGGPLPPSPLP
row,Binder,pKd
1,"TKGPRGPTRV [SAPCD1, Q5SSQ6]",below the threshold

# Target: T7, MPP6, Q9NZW5
# T7 sequence (Q9NZW5 125-219, limits assumed, looked up): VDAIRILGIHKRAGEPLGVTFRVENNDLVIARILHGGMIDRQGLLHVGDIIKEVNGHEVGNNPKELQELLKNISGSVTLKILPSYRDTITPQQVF
# Test: holdup assay
# Set-up: key: below the threshold = too weak to quantify, mostly under pKd 3.1 to 4
# Conditions: plain residues with an end cap or a label only (N-terminal biotin on a linker: ado-ado)
row,Binder,pKd
1,"TKGPRGPTRV [SAPCD1, Q5SSQ6]",below the threshold

# Target: AHNAK1, Q09666
# Test: holdup assay
# Set-up: key: below the threshold = too weak to quantify, mostly under pKd 3.1 to 4
# Conditions: plain residues with an end cap or a label only (N-terminal biotin on a linker: ado-ado)
# Sequence of AHNAK1, Q09666 (Q09666 4-100): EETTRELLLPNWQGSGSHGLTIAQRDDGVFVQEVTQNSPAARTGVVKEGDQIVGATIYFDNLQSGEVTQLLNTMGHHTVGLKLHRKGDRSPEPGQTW
row,Binder,pKd
1,"TKGPRGPTRV [SAPCD1, Q5SSQ6]",below the threshold

# Target: PDLIM1, O00151
# Test: holdup assay
# Set-up: key: below the threshold = too weak to quantify, mostly under pKd 3.1 to 4
# Conditions: plain residues with an end cap or a label only (N-terminal biotin on a linker: ado-ado)
# Sequence of PDLIM1, O00151 (O00151 1-87): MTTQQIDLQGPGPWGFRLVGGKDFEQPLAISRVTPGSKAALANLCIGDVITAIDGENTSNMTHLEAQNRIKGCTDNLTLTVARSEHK
row,Binder,pKd
1,"TKGPRGPTRV [SAPCD1, Q5SSQ6]",below the threshold

# Target: FRMPD3, Q5JV73
# Test: holdup assay
# Set-up: key: below the threshold = too weak to quantify, mostly under pKd 3.1 to 4
# Conditions: plain residues with an end cap or a label only (N-terminal biotin on a linker: ado-ado)
# Sequence of FRMPD3, Q5JV73 (Q5JV73 12-100): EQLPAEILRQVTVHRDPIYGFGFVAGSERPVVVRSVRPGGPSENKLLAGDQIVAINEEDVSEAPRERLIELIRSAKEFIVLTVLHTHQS
row,Binder,pKd
1,"TKGPRGPTRV [SAPCD1, Q5SSQ6]",below the threshold

# Target: DLG4_2, P78352
# Test: holdup assay
# Set-up: key: below the threshold = too weak to quantify, mostly under pKd 3.1 to 4
# Conditions: plain residues with an end cap or a label only (N-terminal biotin on a linker: ado-ado)
# Sequence of DLG4_2, P78352 (P78352 155-259): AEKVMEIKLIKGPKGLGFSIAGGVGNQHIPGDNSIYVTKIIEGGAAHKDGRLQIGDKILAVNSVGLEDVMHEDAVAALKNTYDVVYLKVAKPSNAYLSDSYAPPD
row,Binder,pKd
1,"TKGPRGPTRV [SAPCD1, Q5SSQ6]",4.53

# Target: T8, GRIP1_5, Q9Y3R0
# T8 sequence (Q9Y3R0 568-668, limits assumed, looked up): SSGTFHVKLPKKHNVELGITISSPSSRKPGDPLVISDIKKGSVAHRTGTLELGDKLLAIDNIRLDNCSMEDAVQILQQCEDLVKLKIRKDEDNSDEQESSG
# Test: holdup assay
# Set-up: key: below the threshold = too weak to quantify, mostly under pKd 3.1 to 4
# Conditions: plain residues with an end cap or a label only (N-terminal biotin on a linker: ado-ado)
row,Binder,pKd
1,"TKGPRGPTRV [SAPCD1, Q5SSQ6]",below the threshold

# Target: GOPC, Q9HD26
# Test: holdup assay
# Set-up: key: below the threshold = too weak to quantify, mostly under pKd 3.1 to 4
# Conditions: plain residues with an end cap or a label only (N-terminal biotin on a linker: ado-ado)
row,Binder,pKd
1,"TKGPRGPTRV [SAPCD1, Q5SSQ6]",4.19

# Target: T9, SHANK1, Q9Y566
# T9 sequence (Q9Y566 658-767, limits assumed, looked up): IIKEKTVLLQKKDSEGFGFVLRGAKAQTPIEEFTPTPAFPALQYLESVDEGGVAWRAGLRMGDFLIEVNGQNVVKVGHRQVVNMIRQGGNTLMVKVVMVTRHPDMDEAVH
# Test: holdup assay
# Set-up: key: below the threshold = too weak to quantify, mostly under pKd 3.1 to 4
# Conditions: plain residues with an end cap or a label only (N-terminal biotin on a linker: ado-ado)
row,Binder,pKd
1,"TKGPRGPTRV [SAPCD1, Q5SSQ6]",4.26

# Target: DLG4_3, P78352
# Test: holdup assay
# Set-up: key: below the threshold = too weak to quantify, mostly under pKd 3.1 to 4
# Conditions: plain residues with an end cap or a label only (N-terminal biotin on a linker: ado-ado)
# Sequence of DLG4_3, P78352 (P78352 306-403): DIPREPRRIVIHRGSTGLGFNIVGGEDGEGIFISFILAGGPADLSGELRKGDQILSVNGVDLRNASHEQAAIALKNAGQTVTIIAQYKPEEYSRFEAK
row,Binder,pKd
1,"TKGPRGPTRV [SAPCD1, Q5SSQ6]",4.59

# Target: MAGI3_2, Q5TCQ9
# Test: holdup assay
# Set-up: key: below the threshold = too weak to quantify, mostly under pKd 3.1 to 4
# Conditions: plain residues with an end cap or a label only (N-terminal biotin on a linker: ado-ado)
# Sequence of MAGI3_2, Q5TCQ9 (Q5TCQ9 398-503): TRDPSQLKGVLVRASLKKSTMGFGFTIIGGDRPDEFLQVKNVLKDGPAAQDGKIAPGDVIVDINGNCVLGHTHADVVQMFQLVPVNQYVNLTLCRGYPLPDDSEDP
row,Binder,pKd
1,"TKGPRGPTRV [SAPCD1, Q5SSQ6]",5.41

# Target: GRASP, Q7Z6J2
# Test: holdup assay
# Set-up: key: below the threshold = too weak to quantify, mostly under pKd 3.1 to 4
# Conditions: plain residues with an end cap or a label only (N-terminal biotin on a linker: ado-ado)
# Sequence of GRASP, Q7Z6J2 (Q7Z6J2 96-193): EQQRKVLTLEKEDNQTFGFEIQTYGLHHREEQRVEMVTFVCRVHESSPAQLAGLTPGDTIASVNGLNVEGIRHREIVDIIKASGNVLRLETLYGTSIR
row,Binder,pKd
1,"TKGPRGPTRV [SAPCD1, Q5SSQ6]",4.59
